Test results as given in the nanobody polyreactivity screen of Harvey et al. (2022).

assay: yeast display, Sf9 membrane polyspecificity reagent, FACS + sequencing; frameworks hold sequencing errors
Outline: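 Galactose-induced (36–48 hours) yeast carrying a synthetic nanobody display library were exposed to 10% biotinylated, detergent-solubilized Sf9 membrane reagent at 4 °C for 1 hour. FACS followed streptavidin microbead enrichment, using low and high (top ~1%) gates for expression (anti-HA) and reagent binding (streptavidin). Colony PCR, MiSeq 2 × 250 sequencing and CDR-length filtering followed. Labels for polyreactivity reflect the gate of origin.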

Row | Sequence | polyreactivity (PSR sort gate)
1 | QVQLVESGGGLVQAGGSLRLSCAASGRIFGIYAMGWYRQAPGKERELVAAISKSGARTYYADSVKGRFTISRDNAKNTVFLQMNSLKPEDTAVYYCNAYRRKYYFTYGSWGQGTQVTVSS | high polyreactivity
2 | QVQLVESGGGLVQAGGSLRLSCAASGRIFGIYAMGWYRQAPGKERELVARITGGGSTNYADSVKGRFTISRDNAKNTVYLQMNSLKPEDTAVYYCAATVRRIVGNITRYDYWGQGTQVTVSS | low polyreactivity
3 | QVQLVESGGGLVQAGGSLRLSCAASGRIFGKYAMGWYRQAPGKERELVAAIRITGGSTYYADSVKGRFTISRDNAKNTVYLQMNSLKPEDTAVYYCAAVYKYADVIYDYWGQGTQVTVSS | high polyreactivity
4 | QVQLVESGGGLVQAGGSLRLSCAASGRIFGKYAMGWYRQAPGKERELVATISLSGVRTYYADSVKGRFTISRDNAKNTVYLQMNSLKPEDTAVYYCASCYSSNGDYWGQGTQVTVSS | low polyreactivity
5 | QVQLVESGGGLVQAGGSLRLSCAASGRIFGKYMGWYRQAPGKERELVAAISRNGGRTYYADSVKGRFTISRDNAKNTVYLQMNCLNPEDTAVYYCAAASSRYDYWGQGTQVTVSS | high polyreactivity
6 | QVQLVESGGGLVQAGGSLRLSCAASGRIFGLYAMGWYRQAPGKERELVAAISSRGGNTYYADSVKGRFTISRDDAKNTVYLQMNSLKPEDTAVYYCARDSYSLSRTYDSWGQGTQVTVSS | high polyreactivity
7 | QVQLVESGGGLVQAGGSLRLSCAASGRIFGNNAMGLYRQAPGKERELVAAIRRGGSTYYADSVKGRFTISRDNAKNTVYLQMNSLKPEDTAVYYCAADSSRKHFYWGQGTQVTVSS | high polyreactivity
8 | QVQLVESGGGLVQAGGSLRLSCAASGRIFGNNAMGWYRQAPGKERELVATITRRGGSTYYADSVKGRFTISRDNAKNTVYLQMNSLKPEDTAVYYCAADRWPYWVAFYSWGQGTQVTVSS | high polyreactivity
9 | QVQLVESGGGLVQAGGSLRLSCAASGRIFGNYAMGWYIQAPGKERELVAAISSGGNTNYADSVKGRFTISRDNAKNTVYLQMNSLKPEDTAVYYCAAYHFSFGWIRVDYWGQGTQVTVSS | high polyreactivity
10 | QVQLVESGGGLVQAGGSLRLSCAASGRIFGNYAMGWYRQAPGKERELVAAISGGGSTYYADSVKGRFTISRDNAKNTVYLQLNSLKPEDTAVYYCAARFLWSVFGGKGGYWGQGTQVTVSS | low polyreactivity
11 | QVQLVESGGGLVQAGGSLRLSCAASGRIFGPDAMRWYRQAPRKERELVAAITWRGDRTYYADSVKGRFTISRDIAKNSVYLQINSLKPEDTAVYYCAARGGRSEYDYWGQATQVTVSS | low polyreactivity
12 | QVQLVESGGGLVQAGGSLRLSCAASGRIFGPYAMGWYRQAPGKDRELVASISYSGGSTYYADSVKGRFTISRDKAKNTVYLQMNSLKPEDTAVYYCDKAGYWRGYNYWGQGTQVTVSS | low polyreactivity
13 | QVQLVESGGGLVQAGGSLRLSCAASGRIFGPYAMGWYRQAPGKERELVATITWRTGSTYYADSVKGRFTISRDNAKNTVYLQMNSLKPEDTAVYYCAAQSRQAYITYGYWGQGTQVTVSS | high polyreactivity
14 | QVQLVESGGGLVQAGGSLRLSCAASGRIFGQNAMGWYRQAPGKERELVAVISQSGGRTYYADSVKGRFTISRDNAKNTVYLQMNSLKPEDTAVYYCAKGGYQHYWGQGTQVTVSS | high polyreactivity
15 | QVQLVESGGGLVQAGGSLRLSCAASGRIFGQYAMGWYRQAPGKERELVASISRRGGSTNYADSVKGRFTISRDNAKNTVYLQMNSLKPEDSAVYYCAARTWRRQYYRTRYEYWGQGTQVNVSS | high polyreactivity
16 | QVQLVESGGGLVQAGGSLRLSCAASGRIFGRNAMGWYRKAPGKERELVAAISWRGGNTYYADSVKGRFTISRDNAKNTVYLQMNSLKPEDTAVYYCNTVQYRNEMGYWGQGTQVTVSS | high polyreactivity
